One protein from patent publication US20060292657A1, “Phex substrates and methods using same” (priority 2003, published 2006) can be followed below.

Marks after values point to notes of the source that are not given here.

What all share (experiment): Kinetic parameters for hydrolysis of internally quenched fluorogenic peptides by secPHEX
Common to all, as to assay type: biochemical, human

Substrate in data set [1]: Nc1ccccc1C(=O)NCC(=O)N[C@@H](Cc1ccccc1)C(=O)N[C@@H](CO)C(=O)N[C@@H](CCC(=O)O)C(=O)N[C@@H](Cc1ccc(O)cc1)C(=O)N[C@@H](CCCCNc1ccc([N+](=O)[O-])cc1[N+](=O)[O-])C(=O)O
Conditions: other: 37° C., 10 mM Bis-Tris buffer pH 5.5, 150 mM NaCl, [S]<<Km. The procedure, abridged: (§1)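 Purified human recombinant secPHEX hydrolysing internally quenched fluorogenic peptides at 37° C in 10 mM Bis-Tris pH 5.5, 150 mM NaCl; fluorescence (ex 320, em 420 nm) followed continuously, <5% substrate hydrolysed, inner-filter corrected. Km and kcat by non-linear regression; kcat/Km under [S]<<Km where applicable.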

Substrate in data set [2]: C[C@H](NC(=O)[C@H](CO)NC(=O)[C@H](CCC(N)=O)NC(=O)[C@@H](NC(=O)[C@H](Cc1c[nH]cn1)NC(=O)[C@H](CCCNC(=N)N)NC(=O)[C@H](CCCNC(=N)N)NC(=O)c1ccccc1N)[C@@H](C)O)C(=O)N[C@@H](CCC(=O)O)C(=O)N[C@@H](CC(=O)O)C(=O)N[C@@H](CC(=O)O)C(=O)N[C@@H](CO)C(=O)N[C@@H](CCC(=O)O)C(=O)N[C@@H](CCCNC(=N)N)C(=O)N[C@@H](CCC(N)=O)C(=O)NCCNc1ccc([N+](=O)[O-])cc1[N+](=O)[O-]
Conditions: other: 37° C., 10 mM Bis-Tris buffer pH 5.5, 150 mM NaCl. The procedure, abridged: as §1

Substrate in data set [3]: NC(=O)CC[C@H](NC(=O)[C@H](CO)NC(=O)CNC(=O)[C@H](CO)NC(=O)[C@H](CC(=O)O)NC(=O)[C@H](CO)NC(=O)[C@H](CO)NC(=O)c1ccccc1N)C(=O)NCCNc1ccc([N+](=O)[O-])cc1[N+](=O)[O-]
Conditions: other: 37° C., 10 mM Bis-Tris buffer pH 5.5, 150 mM NaCl. The procedure, abridged: as §1

Substrate in data set [4]: Nc1ccccc1C(=O)NCC(=O)N[C@@H](Cc1ccccc1)C(=O)N[C@@H](CO)C(=O)N[C@@H](CC(=O)O)C(=O)N[C@@H](Cc1ccc(O)cc1)C(=O)N[C@@H](CCCCNc1ccc([N+](=O)[O-])cc1[N+](=O)[O-])C(=O)O
Conditions: other: 37° C., 10 mM Bis-Tris buffer pH 5.5, 150 mM NaCl. The procedure, abridged:
as §1

B1: human recombinant secPHEX (Homo sapiens) (protein)
chain: SLQAKQEYCLKPECIEAAAAILSKVNLSVDPCDNFFRFACDGWISNNPIPEDMPSYGVYPWLRHNVDLKLKELLEKSISRRRDTEAIQKAKILYSSCMNEKAIEKADAKPLLHILRHSPFRWPVLESNIGPEGVWSERKFSLLQTLATFRGQYSNSVFIRLYVSPDDKASNEHILKLDQATLSLAVREDYLDNSTEAKSYRDALYKFMVDTAVLLGANSSRAEHDMKSVLRLEIKIAEIMIPHENRTSEAMYNKMNISELSAMIPQFDWLGYIKKVIDTRLYPHLKDISPSENVVVRVPQYFKDLFRILGSERKKTIANYLVWRMVYSRIPNLSRRFQYRWLEFSRVIQGTTTLLPQWDKCVNFIESALPYVVGKMFVDVYFQEDKKEMMEELVEGVRWAFIDMLEKENEWMDAGTKRKAKEKARAVLAKVGYPEFIMNDTHVNEDLKAIKFSEADYFGNVLQTRKYLAQSDFFWLRKAVPKTEWFTNPTTVNAFYSASTNQIRFPAGELQKPFFWGTEYPRSLSYGAIGVIVGHEFTHGFDNNGRKYDKNGNLDPWWSTESEEKFKEKTKCMINQYSNYYWKKAGLNVKGKRTLGENIADNGGLREAFRAYRKWINDRRQGLEEPLLPGITFTNNQLFFLSYAHVRCNSYRPEAAREQVQIGAHSPPQFRVNGAISNFEEFQKAFNCPPNSTMNRGMDSCRLW
notes: pure soluble form of PHEX (secPHEX); made in house
B1: the kcat/Km (as a rule, the second-order rate constant that governs catalysis at low substrate concentration) was 9.0* mM^−1 s^−1 in data set [1], 88200 M⁻¹ s⁻¹ in data set [2], 7100 M⁻¹ s⁻¹ in data set [3] and 166700 M⁻¹ s⁻¹ in data set [4]. Also, the Michaelis-Menten constant (Km) (commonly the substrate concentration at which the rate is half of its maximum) in data set [2] is 1.7 µM; in data set [3], 31.6 µM; in data set [4] it was 3.0 µM. In addition, the kcat (usually the number of substrate molecules converted per active site and unit of time at saturation) was 0.15 s⁻¹ in data set [2], 0.2 s⁻¹ in data set [3] and 0.5 s⁻¹ in data set [4].
